From US20150274826A1 (ARCH ONCOLOGY, published 2015) come the findings set out here.

B1: Clone 17.1 (hum17 IgG1 N297Q) (antibody)
heavy: EVQLVQSGAEVKKPGATVKISCKVSGYTFTNYYVFWIRQPPGKGLEWIGDINPVNGDTNFNEKFKNRVTITADKSTSTAYMELSSLRSEDTAVYYCARGGYTMDYWGQGTLVTVSSASTKGPSVFPLAPSSKSTSGGTAALGCLVKDYFPEPVTVSWNSGALTSGVHTFPAVLQSSGLYSLSSVVTVPSSSLGTQTYICNVNHKPSNTKVDKKVEPKSCDKTHTCPPCPAPELLGGPSVFLFPPKPKDTLMISRTPEVTCVVVDVSHEDPEVKFNWYVDGVEVHNAKTKPREEQYQSTYRVVSVLTVLHQDWLNGKEYKCKVSNKALPAPIEKTISKAKGQPREPQVYTLPPSR
light: AIQLTQSPSSLSASVGDRVTITCRSSQSLVHSNGNTYLHWYQQKPGQAPRLLIYKVSYRFSGVPDRFSGSGSGTDFTLKISRVEAEDVGVYYCSQNTHVPRTFGQGTKVEIKRTVAAPSVFIFPPSDEQLKSGTASVVCLLNNFYPREAKVQWKVDNALQSGNSQESVTEQDSKDSTYSLSSTLTLSKADYEKHKVYACEVTHQGLSSPVTKSFNRGEC
notes: IgG1 N297Q
B2: Clone 17.2 (hum17 IgG4 S228P L235E) (antibody)
heavy: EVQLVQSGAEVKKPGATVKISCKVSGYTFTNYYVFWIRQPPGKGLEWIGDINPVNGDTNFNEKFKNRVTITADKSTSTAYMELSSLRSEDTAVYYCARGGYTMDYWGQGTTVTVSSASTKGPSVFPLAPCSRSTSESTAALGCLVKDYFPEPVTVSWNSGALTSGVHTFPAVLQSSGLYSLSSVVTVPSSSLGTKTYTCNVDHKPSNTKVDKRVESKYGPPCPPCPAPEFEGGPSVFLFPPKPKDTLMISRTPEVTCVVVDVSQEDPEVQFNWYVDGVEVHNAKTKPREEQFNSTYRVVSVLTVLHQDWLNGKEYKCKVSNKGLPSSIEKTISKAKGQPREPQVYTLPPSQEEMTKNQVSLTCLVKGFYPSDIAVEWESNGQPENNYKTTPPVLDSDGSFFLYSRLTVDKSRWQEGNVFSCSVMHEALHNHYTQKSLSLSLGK
light: B1 light
notes: IgG4 S228P L235E
B3: Clone 3.2 (hum03 IgG4 S228P L235E) (antibody)
heavy: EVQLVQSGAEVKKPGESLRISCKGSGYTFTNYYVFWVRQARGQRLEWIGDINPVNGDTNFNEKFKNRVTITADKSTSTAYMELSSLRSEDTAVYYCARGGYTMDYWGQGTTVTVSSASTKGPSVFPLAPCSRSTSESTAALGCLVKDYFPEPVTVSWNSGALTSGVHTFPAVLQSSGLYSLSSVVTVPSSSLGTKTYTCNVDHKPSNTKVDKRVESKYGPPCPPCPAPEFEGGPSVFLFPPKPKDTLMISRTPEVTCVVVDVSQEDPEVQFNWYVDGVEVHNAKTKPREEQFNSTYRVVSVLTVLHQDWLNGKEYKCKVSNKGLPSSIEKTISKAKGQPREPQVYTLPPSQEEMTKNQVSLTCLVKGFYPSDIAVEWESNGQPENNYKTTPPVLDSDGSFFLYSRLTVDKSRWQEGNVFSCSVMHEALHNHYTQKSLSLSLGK
light: DVVMTQSPLSLPVTLGQPASISCRSSQSLVHSNGNTYLHWYQQKPGKAPKLLIYKVSYRFSGVPDRFSGSGSGTDFTLKISRVEAEDVGVYYCSQNTHVPRTFGQGTKVEIKRTVAAPSVFIFPPSDEQLKSGTASVVCLLNNFYPREAKVQWKVDNALQSGNSQESVTEQDSKDSTYSLSSTLTLSKADYEKHKVYACEVTHQGLSSPVTKSFNRGEC
notes: IgG4 S228P L235E
B4: Clone 23.1 (hum23 IgG1 N297Q) (antibody)
heavy: QVQLQESGPGLVKPSQTLSLTCTVSGYTFTNYYVFWVRQARGQRLEWIGDINPVNGDTNFNEKFKNRLTISKDTSKNQVVLTMTNMDPVDTATYYCARGGYTMDYWGQGTLVTVSSASTKGPSVFPLAPSSKSTSGGTAALGCLVKDYFPEPVTVSWNSGALTSGVHTFPAVLQSSGLYSLSSVVTVPSSSLGTQTYICNVNHKPSNTKVDKKVEPKSCDKTHTCPPCPAPELLGGPSVFLFPPKPKDTLMISRTPEVTCVVVDVSHEDPEVKFNWYVDGVEVHNAKTKPREEQYQSTYRVVSVLTVLHQDWLNGKEYKCKVSNKALPAPIEKTISKAKGQPREPQVYTLPPSR
light: B3 light with V2I, S7T, L15P, Q17E
notes: IgG1 N297Q
B5: Clone 5.1 (hum05 IgG1 N297Q) (antibody)
heavy: QVQLQESGPGLVKPSQTLSLTCTVSGYTFTNYYVFWVRQAPGKGLEWVSDINPVNGDTNFNEKFKNRVTISVDTSKNQFSLKLSSVTAADTAVYYCARGGYTMDYWGQGTLVTVSSASTKGPSVFPLAPSSKSTSGGTAALGCLVKDYFPEPVTVSWNSGALTSGVHTFPAVLQSSGLYSLSSVVTVPSSSLGTQTYICNVNHKPSNTKVDKKVEPKSCDKTHTCPPCPAPELLGGPSVFLFPPKPKDTLMISRTPEVTCVVVDVSHEDPEVKFNWYVDGVEVHNAKTKPREEQYQSTYRVVSVLTVLHQDWLNGKEYKCKVSNKALPAPIEKTISKAKGQPREPQVYTLPPSR
light: B3 light with V2I, S7T, L15P, Q17E, Q42L, K47Q, A48S, K50Q
notes: IgG1 N297Q
B6: Clone 8.1 (hum08 IgG1 N297Q) (antibody)
heavy: QITLKESGPTLVKPTQTLTLTCTFSGYTFTNYYVFWIRQSPSRGLEWLGDINPVNGDTNFNEKFKNRFTISRDNAKNSLYLQMNSLRAEDTAVYYCARGGYTMDYWGQGTLVTVSSASTKGPSVFPLAPSSKSTSGGTAALGCLVKDYFPEPVTVSWNSGALTSGVHTFPAVLQSSGLYSLSSVVTVPSSSLGTQTYICNVNHKPSNTKVDKKVEPKSCDKTHTCPPCPAPELLGGPSVFLFPPKPKDTLMISRTPEVTCVVVDVSHEDPEVKFNWYVDGVEVHNAKTKPREEQYQSTYRVVSVLTVLHQDWLNGKEYKCKVSNKALPAPIEKTISKAKGQPREPQVYTLPPSR
light: B3 light with V2I, S7T, L15P, Q17E
notes: IgG1 N297Q
B7: Clone 23.2 (hum23 IgG4 S228P L235E) (antibody)
heavy: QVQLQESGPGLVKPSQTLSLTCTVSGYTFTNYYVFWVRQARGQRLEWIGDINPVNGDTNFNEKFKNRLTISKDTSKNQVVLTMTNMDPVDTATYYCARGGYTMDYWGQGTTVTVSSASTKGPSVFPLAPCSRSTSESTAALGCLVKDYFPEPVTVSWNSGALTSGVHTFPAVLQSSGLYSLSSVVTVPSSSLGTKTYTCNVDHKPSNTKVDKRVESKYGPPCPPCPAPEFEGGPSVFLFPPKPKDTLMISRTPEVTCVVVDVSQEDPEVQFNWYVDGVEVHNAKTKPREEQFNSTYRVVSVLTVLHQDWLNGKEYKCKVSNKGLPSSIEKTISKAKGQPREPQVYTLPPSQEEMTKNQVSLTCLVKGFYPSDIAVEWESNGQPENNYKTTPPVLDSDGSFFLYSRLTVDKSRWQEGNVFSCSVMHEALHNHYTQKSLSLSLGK
light: B3 light with V2I, S7T, L15P, Q17E
notes: IgG4 S228P L235E
B8: Clone 5.2 (hum05 IgG4 S228P L235E) (antibody)
heavy: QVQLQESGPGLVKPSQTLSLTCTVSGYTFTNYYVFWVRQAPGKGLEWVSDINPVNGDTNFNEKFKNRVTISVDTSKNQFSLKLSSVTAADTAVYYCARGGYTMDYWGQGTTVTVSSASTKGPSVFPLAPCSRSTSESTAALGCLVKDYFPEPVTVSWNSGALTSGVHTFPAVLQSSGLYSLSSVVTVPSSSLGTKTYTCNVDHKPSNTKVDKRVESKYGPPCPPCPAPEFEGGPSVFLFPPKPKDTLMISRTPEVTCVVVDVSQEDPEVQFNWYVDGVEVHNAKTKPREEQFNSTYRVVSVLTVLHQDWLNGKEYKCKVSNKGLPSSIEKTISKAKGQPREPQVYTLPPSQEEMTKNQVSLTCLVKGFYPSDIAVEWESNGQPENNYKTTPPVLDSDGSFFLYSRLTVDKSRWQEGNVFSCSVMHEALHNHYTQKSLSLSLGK
light: B3 light with V2I, S7T, L15P, Q17E, Q42L, K47Q, A48S, K50Q
notes: IgG4 S228P L235E
B9: Clone 8.2 (hum08 IgG4 S228P L235E) (antibody)
heavy: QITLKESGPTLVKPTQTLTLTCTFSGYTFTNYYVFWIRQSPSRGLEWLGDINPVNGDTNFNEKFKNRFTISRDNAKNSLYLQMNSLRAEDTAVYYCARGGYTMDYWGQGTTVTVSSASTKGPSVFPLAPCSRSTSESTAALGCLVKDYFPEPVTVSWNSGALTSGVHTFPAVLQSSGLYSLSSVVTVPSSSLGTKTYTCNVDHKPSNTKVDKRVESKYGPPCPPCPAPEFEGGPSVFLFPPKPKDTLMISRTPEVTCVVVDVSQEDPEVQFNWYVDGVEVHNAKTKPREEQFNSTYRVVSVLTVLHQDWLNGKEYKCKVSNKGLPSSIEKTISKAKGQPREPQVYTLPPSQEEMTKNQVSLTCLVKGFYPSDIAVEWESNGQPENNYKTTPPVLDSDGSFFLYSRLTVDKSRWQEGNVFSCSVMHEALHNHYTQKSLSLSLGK
light: B3 light with V2I, S7T, L15P, Q17E
notes: IgG4 S228P L235E
B10: Clone 20.1 (hum20 IgG1 N297Q) (antibody)
heavy: QITLKESGPTLVKPTQTLTLTCTFSGYTFTNYYVFWVRQAPGQGLEWMGDINPVNGDTNFNEKFKNRVTITADKSTSTAYMELSSLRSEDTAVYYCARGGYTMDYWGQGTLVTVSSASTKGPSVFPLAPSSKSTSGGTAALGCLVKDYFPEPVTVSWNSGALTSGVHTFPAVLQSSGLYSLSSVVTVPSSSLGTQTYICNVNHKPSNTKVDKKVEPKSCDKTHTCPPCPAPELLGGPSVFLFPPKPKDTLMISRTPEVTCVVVDVSHEDPEVKFNWYVDGVEVHNAKTKPREEQYQSTYRVVSVLTVLHQDWLNGKEYKCKVSNKALPAPIEKTISKAKGQPREPQVYTLPPSR
light: B3 light with V2I, S7T, L15P, Q17E, Q42L, K47Q, A48S, K50Q
notes: IgG1 N297Q
B11: Clone 20.2 (hum20 IgG4 S228P L235E) (antibody)
heavy: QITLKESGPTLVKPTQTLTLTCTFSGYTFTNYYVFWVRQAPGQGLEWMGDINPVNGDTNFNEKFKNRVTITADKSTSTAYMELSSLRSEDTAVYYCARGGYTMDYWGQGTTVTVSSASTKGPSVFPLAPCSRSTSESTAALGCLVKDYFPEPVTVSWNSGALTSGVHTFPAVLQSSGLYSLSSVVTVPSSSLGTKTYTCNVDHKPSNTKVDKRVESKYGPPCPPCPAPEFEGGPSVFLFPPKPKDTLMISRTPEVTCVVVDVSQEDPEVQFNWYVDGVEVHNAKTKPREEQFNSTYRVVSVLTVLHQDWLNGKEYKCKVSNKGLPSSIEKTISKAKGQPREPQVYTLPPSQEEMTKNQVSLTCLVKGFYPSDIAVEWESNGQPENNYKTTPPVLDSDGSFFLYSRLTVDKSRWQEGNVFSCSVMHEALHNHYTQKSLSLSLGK
light: B3 light with V2I, S7T, L15P, Q17E, Q42L, K47Q, A48S, K50Q
notes: IgG4 S228P L235E

Changes are numbered by the printed parent chain. In names and notes the source's numbering stands.

T1 sequence (Q08722 19-323): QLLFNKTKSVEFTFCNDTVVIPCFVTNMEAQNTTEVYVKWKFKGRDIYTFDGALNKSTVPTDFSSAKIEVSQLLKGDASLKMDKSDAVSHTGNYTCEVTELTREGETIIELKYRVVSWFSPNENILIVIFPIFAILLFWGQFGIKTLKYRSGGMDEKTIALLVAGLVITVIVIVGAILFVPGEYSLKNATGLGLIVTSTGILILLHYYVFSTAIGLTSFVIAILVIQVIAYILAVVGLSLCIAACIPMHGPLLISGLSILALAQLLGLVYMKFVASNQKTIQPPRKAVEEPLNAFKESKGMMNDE

One test concerns the target T1, human CD47 (human, UniProt Q08722 19-323).
T1 construct: whole, on cells; also called CD47 on human RBCs; CD47 on OV10 cells
Briefly: cell-based ELISA on human OV10 cells, apparent Kd. The procedure: (§1) OV10 cells are grown in IMDM medium containing 10% heat inactivated fetal bovine serum (BioWest; S01520) and 4T1 cells are grown in RMPI medium containing 10% heat inactivated fetal bovine serum (BioWest; S01520). One day before assay, 3×10⁴ cells are plated in 96 well cell bind plates (Corning #3300, VWR #66025-626) so that they are 95-100% confluent at the time of assay. Cells are washed and various concentrations of purified antibodies added in either IMDM or RPMI at 37° C. for 1 hour in […]. Cells are then washed with media and incubated for an additional hour at 37° C. with HRP labeled secondary anti-human antibody (Promega) diluted 1/2500 in media. Cells are washed three times with PBS, and the peroxidase substrate 3,3′,5,5′-tetramethylbenzidine is added (Sigma; Catalog #T4444). Reactions are terminated by the addition of HCl to 0.7N, and absorbance at 450 nm is determined using a Tecan model Infinite M200 plate reader. The apparent binding affinities of these clones to human and mouse cells is determined by non-linear fits (Prism GraphPad software). […] Agglutination of human RBCs is assessed following incubation of human RBCs with various concentrations of humanized blocking only clones. Blood is diluted (1:50) and washed 3 times with PBS/EDTA/BSA. RBCs are added to U-bottomed 96 well plates with equal volumes of the antibodies (75 μl) and incubated for 3 hrs at 37° C. and overnight at 4° C.
(In general: An ELISA detects its analyte on a solid surface through an enzyme-linked reagent.)
As for B1, the Kd came out at 0.0855 nM.
Still for that read-out and setting: the same measure for B2: 0.121 nM; for B3: 0.129 nM.
On the same count and under the same terms, then B4, with 0.0996 nM; and B5, with 0.125 nM.
For B6, the Kd is 0.115 nM.
Take B7: the Kd came out at 0.195 nM.
On to B8, for which the Kd is 0.107 nM.
Same read-out and setting: the same measure for B9: 0.121 nM; for B10: 0.121 nM; for B11: 0.114 nM.

The target of the next test is T2, mouse CD47 (mouse, UniProt Q61735 19-303).
T2 construct: whole, on cells; also called CD47 on mouse RBCs; CD47 on 4T1 cells
T2 sequence (looked up): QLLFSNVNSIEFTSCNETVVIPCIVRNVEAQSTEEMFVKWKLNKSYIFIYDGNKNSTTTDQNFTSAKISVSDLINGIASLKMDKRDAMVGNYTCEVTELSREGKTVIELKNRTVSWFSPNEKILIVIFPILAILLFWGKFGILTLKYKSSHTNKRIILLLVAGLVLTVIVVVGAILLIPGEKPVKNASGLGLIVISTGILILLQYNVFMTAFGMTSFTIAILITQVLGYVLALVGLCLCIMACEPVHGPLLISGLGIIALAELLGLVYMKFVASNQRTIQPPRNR
Briefly: cell-based ELISA on mouse 4T1 cells, apparent Kd. The procedure:
as §1
With B1, the Kd amounted to 0.198 nM.
Same read-out and setting: the same measure for B2: 0.147 nM; for B3: 0.202 nM.
Still for that read-out and setting: then B4, with 0.0922 nM; and B5, with 0.112 nM.
Still for that read-out and setting: the same measure for B6: 0.205 nM.
As for B7, the Kd was found to be 0.192 nM.
Regarding B8, the Kd came out at 0.172 nM.
The same measure, in the same setting: the same measure for B9: 0.0949 nM.
As for B10, the Kd worked out at 0.237 nM.
Same read-out and setting: the same measure for B11: 0.354 nM.
